For this assay, the target named is hemagglutinin-esterase-fusion glycoprotein (HEF) of influenza D virus D/swine/Oklahoma/1334/2011, ectodomain (influenza D virus (D/swine/Oklahoma/1334/2011)). As to the kind of experiment: crystal structure.

Regarding “hemagglutinin-esterase-fusion glycoprotein (HEF) of influenza D virus D/swine/Oklahoma/1334/2011, ectodomain (domain or fragment)”, the stoichiometry N – broadly, a count of units in the complex or per binding partner – was 3.

Values taken from PMC4729479.
